Results from patent US6905817B1, “Ret-independent signaling pathway for GDNF” (Licestia Ltd., priority 1998, dated 2005).
“Also recorded” adds a separate entry of the source.

Tests used:
[1] = system: wild type mouse DRG neurons; assay: GDNF-evoked [Ca^2+]i changes, confocal microscopy with Calcium Green-1AM, wild type DRG neurons; format: cell-based
Description: (§1) DRG from embryonic day 18 (E18) mice were treated with trypsin (Worthington), non-neuronal cells removed by preplating, and about 95% pure neurons cultured on poly-ornithine-laminin-coated glass coverslips in Ham's F14 medium (Imperial Laboratories) with serum substitute containing NGF, BDNF and NT-3 (all from PeproTech, 2 ng/ml if each) for at least 1 day before measurement. Neurotrophins were extensively washed out before GDNF application. GDNF was from PeproTech and donated by Cephalon, Inc. Ret-deficient mice (Schuchardt et al., 1994) were identified from heterozygote matings by the absence of kidneys and PCR-based genotyping. GFRα2-deficient mice were obtained from homozygote matings (Rossi et al., 1999).
(§2) [Ca^2+]i was measured using a Bio-Rad MRC-1024 confocal microscope equipped with an argon-krypton laser. The cells were loaded with 10 μM Calcium Green-1AM (Molecular Probes), a membrane permeable Ca^2+ dye, by 30 min incubation in serum free cell-culture media at 37 ° C. and 5 % CO2. After loading, the neurons were kept at room temperature in Dulbecco's PBS solution contained 20 mM HEPES (pH=7.4) for at least 20 min prior to the experiments. All compounds were applied to the bath by a peristaltic pump. 6 kD Heparin (Sigma) and Alexa 568 nm fluorescent dye (Molecular Probes) were loaded into the cells using Molecular Probes' pinocytotic influx loading reagent basically according to the manufacturer instructions. […] Cell injection was performed using Eppendorf microinjection system. The average intensity of fluorescence in the predefined ROI (Region Of Interest) was measured on-line using TimeCourse software from BioRad. The calibration of fluorescence traces was performed in vitro using Fmax and Fmin values obtained with the calcium calibration buffer kit (Molecular Probes). Because the calibration solutions may not reflect the intracellular environment, the experimental data are presented as delta [Ca^2+]i calculated using Kd=190 nM for Calcium Green-1.

[2] = system: Ret^−/− DRG neurons; assay: GDNF-evoked [Ca^2+]i changes, confocal microscopy, Ret^−/− DRG neurons; format: cell-based, mouse
Description: as §1, §2

[3] = system: GFRα1-associated Src kinases; assay: In vitro kinase assay on anti-GFRα1 immunoprecipitate from Ret^−/− DRG neurons; format: cell-based, mouse; conditions: GDNF 100 ng/ml, 5 min; Triton X-100 insoluble fraction
Description: (§3) DRG neurons (5×10^5), SHEP neuroblastoma cells (10^7), Neuro2A neuroblastoma cells stably transfected with GFRα1 (10^7) or NIH3T3 cells (NIH3T3/pBpGFRα1) stably transfected with GFRα1 (10^7) were incubated in serum-free culture medium without (control) or with GDNF (GDNF-treated) for 0.5-15 min at 37° C. The cells were washed twice with cold PBS/vanadate and lysed in TX-100 lysis buffer (50 mM Tris-HCl, pH 7.5, 150 mM NaCl, 5 mM EDTA, 1% Triton X-100, 1 mM sodium orthovanadate, 1 mM phenylmethylsulfonyl fluoride (PMSF) and protease inhibitors (Boehringer) on ice for 1 hour. The postnuclear lysates were pre-cleared by incubation with 50 μl of 50% Protein G-Sepharose for goat polyclonal antibodies or Protein A-Sepharose CL4B (Pharmacia) for rabbit polyclonal antibodies for 1 hour at +4° C. After removal of the beads, the supernatants were incubated with 0.4-0.5 μg of anti-GFRα1 or anti-Yes polyclonal antibodies (Santa Cruz Biotechnology) overnight at +4° C. followed by incubation with Protein G or A-Sepharose for 2 hours. The immunocomplexes were washed twice in TX-100 lysis buffer without EDTA and twice in kinase buffer (25 mM Hepes, pH 7.4, 5 mM MgCl2, 5 mM MnCl2, 1 mM sodium orthovanadate). […] Quantification of the optical density of the blots was performed using the TINA program.

[4] = system: Src-type kinase; assay: Immuno-complex kinase assay on anti-GFRα1 co-precipitates from SHEP neuroblastoma cells; format: cell-based, human; conditions: GDNF 100 ng/ml
Description: as §3, with “program. […]” for “program.”

[5] = system: CREB; assay: CREB Ser-133 phosphorylation assay in SHEP cells; format: cell-based, human; conditions: GDNF treatment
Description: (§4) To assess GDNF-dependent MAPK and CREB phosphorylation in all studied cell lines, the semiconfluent cell monolayers were starved for 3 hours in serum-free medium, and then GDNF was applied for the indicated time. For the analysis of MAPK and CREB activation in Ret^−/− animals the DRG neurons were dissected from E18 mice and maintained in NGF-containing medium for 2 hours. After this time the neurons were deprived of NGF by placing them in NGF-free medium in the presence of anti-NGF antibodies. After 2 hr without NGF, the neurons were stimulated with GDNF. In the experiments involving Src-kinase inhibition, a Src-family kinase inhibitor PP2 was added at the indicated concentrations to the cell monolayers 5 min before GDNF application. In some experiments 1 μg/ml of soluble GFRα1 lacking a GPI anchor (GFRα1/Fc chimeric protein; R&D systems) was added 5 min prior to the GDNF application and was kept in the solution during the GDNF treatment, After stimulation, the cells were briefly washed with PBS/sodium vanadate and lysed in the buffer containing TBS, 2 mM EDTA, 1% NP-40, 1% Triton X-100, 1 mM PMSF, 1 mM Na3VO4 and a Complete, protease inhibitors cocktail (Boehringer Mannheim). Total cell protein for each extract was measured by MicroBSA (Pierce) and an equivalent amount of protein was resolved electrophoretically on 10% polyacrylamide gels. […]

[6] = system: JNK; assay: JNK phosphorylation assay in SHEP cells; format: cell-based, human; conditions: GDNF 100 ng/ml
Description: as §4

[7] = system: Ret^−/− DRG neurons; assay: Survival of Ret^−/− DRG neurons in culture; format: cell-based, mouse; conditions: unpublished observations and Taraviras et al., 1999

B1: Glial cell line—derived neurotrophic factor (protein, UniProt P39905 78-211, looked up)
Glial cell line-derived …: SPDKQMAVLPRRERNRQAAAANPENSRGKGRRGQRGKNRGCVLTAIHLNVTDLGLGYETKEELIFRYCSGSCDAAETTYDKILKNLSRNRRLVSDKVGQACCRPIAFDDDLSFLDDNLVYHILRKHSAKRCGCI
notes: TGF-β family-related neurotrophic protein; from PeproTech and donated by Cephalon, Inc
B1 was tested, and the “wild type DRG neurons in which GDNF-evoked changes in [Ca^2+]i were observed” value [1] was 60-70%, the “change in [Ca^2+]i” value ([1]; GDNF 10 ng/ml) was “induced a rapid transient increase in [Ca^2+]i” and the “change in [Ca^2+]i” value ([1]; GDNF concentrations over 10 ng/ml (10-100 ng/ml)) was “evoked rapid and long-lasting elevations in [Ca^2+]i; also recorded: evoked both a transient and slow long-lasting elevation in [Ca^2+]i”. The “Ret^−/− DRG neurons with long-lasting [Ca^2+]i elevation” value ([2]; 10-100 ng/ml GDNF) was 60-70%, the “change in [Ca^2+]i” value ([2]; 10-100 ng/ml GDNF) was “long-lasting [Ca^2+]i elevation” and the “fast [Ca^2+]i rise” value ([2]; GDNF) was “never observed a GDNF-dependent fast [Ca^2+]i rise”. The “change in [Ca^2+]i (calcium entry)” value ([2]; GDNF 100 ng/ml in nominally Ca^2+ free external solution (about 20 μM)) was “evoked a massive [Ca^2+]i overshoot and substantially slower decay kinetics; also recorded: resulted in a profound increase in [Ca^2+]i”, the “phosphoprotein in in vitro kinase assay of anti-GFRα1 precipitate” value [3] was “revealed a major phosphoprotein of approximately 60 kD” and the “Src type kinase activity associated with GFRα1” value ([4]; 1 min, postnuclear lysate) was “significantly increased Src type kinase activity”. For the same molecule, the “increase of Src-type kinase activity” value ([4]; Triton X-100 insoluble fractions, relative to non-treated cells) was “twelve-fold”, the “phosphorylation of CREB in Ser-133 site” value [5] was “potently induced phosphorylation of CREB” and the “JNK activation (phosphorylation)” value [6] was “did not evoke JNK activation; also recorded: did not affect the phosphorylation of JNK”. The “survival of Ret^−/− DRG neurons in culture” value [7] was “not been shown to stimulate survival”.
